Reference: US8889126B2, “Methods and compositions for treating neuropathies” (Washington University, priority 2004, dated 2014)

Assays:
[1] = system: NAD generated after 1 hour at 37 deg; test: relative NMNAT enzymatic activity of affinity purified 6xHis-tagged proteins from HEK293T cells; assay type: biochemical; details: affinity purified protein, normalized to protein concentration
Protocol: NMNAT protein overexpression, affinity purification and enzymatic assay. HEK293T cells were transfected with an expression plasmid for each enzyme by using calcium phosphate precipitation. Three days later, cells were washed with PBS twice and then suspended in the buffer containing 50 mM Sodium Phosphate (pH8.0), and 300 mM NaCl (buffer A). Cells were then homogenized by SONIFIRE 450 (BRANSON) and supernatant was collected by centrifugation at 10,000 g for 10 min. […] Relative NMNAT enzymatic activity was measured by using affinity purified proteins as described before and subtracted the value obtained from mock transfected cells and normalized by the amount of recombinant protein determined by densitometry.
Next we confirmed enzymatic activity of cytNMNAT1, NMNAT1 and its mutant cytNMNAT1 were purified from the cell lysate expressing either of proteins by using affinity gel. […] We expressed hexa-histidine tagged NMNAT3 or nucNMNAT3 in HEK293T cells and analyzed subcellular localization and its enzymatic activity. […] In these investigations, the amount of NAD generated after 1 hour at 37 deg was converted NADH, quantified and normalized to protein concentration. […] FIG. 7E presents a quantitative analysis of remaining neurite numbers at 12, 24, 48, and 72 hours after axotomy. […]

[2] = system: DRG explant neurons; test: in vitro Wallerian degeneration assay: DRG explant cultures, axonal transection by removal of neuronal cell bodies; assay type: cell-based, mouse; details: lentivirus-infected DRG neurons
Protocol: To identify the mechanism of delayed axonal degeneration mediated by the Wld^s protein, we employed an in-vitro Wallerian degeneration model. Primary DRG explant neurons were infected with lentivirus expressing the appropriate proteins, and axons were injured by either removal of the neuronal cell body (transection) or growth in vincristine (toxic).
Mouse DRG explants from E12.5 embryos were cultured in the presence of 1 nM nerve growth factor. Non-neuronal cells were removed from the cultures by adding 5-fluorouracil to the culture medium. Transection of neurites was performed at 10-20 DIV using an 18-gauge needle to remove the neuronal cell bodies. Incubation with β-nicotinamide adenine dinucleotide (Sigma) or Sirtinol (Calbiochem) was performed using conditions indicated in the text or figures.
Lentiviral expression vectors were generated using HEK293T cells as described above. For confirmation of lentivirus-derived protein expression, HEK293T cells were infected with lentivirus and cells were lysed 3 days after infection. These lysates were analyzed by immunoblot to using anti-His tag monoclonal antibody (Qiagen) to detect expression of the respective hexahistidine-tagged proteins. Lentiviral infection of DRG neurons was performed by incubating ˜10^6-10^7 pfu/ml virus with the DRG explant for 24 h beginning 3-7 days prior to axonal transection. The infected neurons were examined under an inverted fluorescent microscope to insure detectable lentivirus-mediated transgene expression in >95% of neurons.
Quantitative analysis of axonal degeneration was performed as previously described (Zhai, et al., Neuron 39:217-25, 2003). Briefly, the cultures were examined using phase contrast microscopy at the indicated times. Axons with a fragmented, non-refractile appearance were designated as “degenerated.” At each time point, at least 200 singly distinguishable axons were blindly scored from several randomly taken images of each culture. Each condition was tested in triplicate explants in each experiment. Results were obtained from 2-4 independent experiments for each condition. Statistical analysis was performed by Student's T test. For calculations of neurite-covered area, digitally captured images from quadruplicate samples of two independent experiments were analyzed using analysis 3.1 software (Soft Imaging System, Lakewood, Colo.).
Cell culture, in vitro axotomy, and quantification of axonal degeneration. Mouse DRG explants from E12.5 embryos were cultured in the DMEM containing 10% FCS and 1 nM nerve growth factor. Non-neuronal cells were removed from the cultures by adding 5-fluorouracil to the culture media. Transection of neurites was performed at 14-21 DIV using an 18-gauge needle to remove the neuronal cell bodies. Lentiviral expression vectors were generated. Lentiviral infection was performed 3-7 days prior to axonal transection for 24 hr. Quantitative analysis of neurite degeneration was performed.

NMNAT3: murine nicotinamide mononucleotide adenylyltransferase3
enzymatic activity (relative NMNAT activity) [1]: comparable enzymatic activity compared with NMNAT1
axonal degeneration after transection in neurons expressing the construct [2]: same extent of delay in neurite degeneration as well as NMNAT1
